Patent US20230272082A1 (SENSEI BIOTHERAPEUTICS, published 2023)
Numbering of substitutions follows the chain as printed.

T1: biotinylated hVISTA-Fc (human, biotinylated (site not stated))
T1 construct: also called Human VISTA-Fc
T1 chain: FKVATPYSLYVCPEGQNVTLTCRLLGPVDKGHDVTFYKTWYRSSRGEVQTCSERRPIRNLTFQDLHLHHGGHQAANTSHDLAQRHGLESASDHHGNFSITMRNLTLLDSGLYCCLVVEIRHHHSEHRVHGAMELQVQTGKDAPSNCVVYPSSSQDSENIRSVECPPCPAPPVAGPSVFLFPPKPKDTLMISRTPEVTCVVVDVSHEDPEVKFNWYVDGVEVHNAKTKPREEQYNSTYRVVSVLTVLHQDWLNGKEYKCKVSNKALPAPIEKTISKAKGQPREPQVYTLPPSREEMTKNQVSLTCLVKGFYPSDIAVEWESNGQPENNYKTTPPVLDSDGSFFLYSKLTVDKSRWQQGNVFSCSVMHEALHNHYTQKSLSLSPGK

B1: antibody 55873 (mab#2) (antibody, V domains shown)
VH: EVQLVESGGGLVQPGGSLRLSCAASGFTFSSYSMNWVRQAPGKGLEWVSYISSSSSTIYYADSVKGRFTISRDNAKNSLYLQMNSLRAEDTAVYYCAREAGGVVGRVDFQHWGQGTLVTVSS
VL: DIQMTQSPSSLSASVGDRVTITCQASQDISNYLNWYQQKPGKAPKLLIYDASNLETGVPSRFSGSGSGTDFTFTISSLQPEDIATYYCQQADFLPPWTFGGGTKVEIK
notes: Fully human parental antibody; also called Anti-VISTA mAb #2
B2: SNS-101 (antibody, human IgG1, V domains shown)
VH: B1 VH with S30D, S31D, S54D, S55A, S56D, V104L
VL: B1 VL with M4L, E55G, L94V
notes: Described as a fully human IgG1; also called antibody 67375

Key:
human VISTA [1] = biological target: T2, human VISTA (human, UniProt Q9H7M9 33-194, limits assumed); test: flow cytometry on CHO-VISTA cells, pH 6.0, detection Anti-Fab 647 (legend: Fab on CHO-VISTA cells)
T2 construct: also called hVISTA

human VISTA [2] = biological target: T2, human VISTA; test: flow cytometry on CHO-VISTA cells, pH 7.4, detection Anti-Fab 647 (legend: Fab on CHO-VISTA cells)
biotinylated hVISTA-Fc [3] = biological target: T1, biotinylated hVISTA-Fc; test: competition ELISA at pH 6.0; SNS-101 dilutions pre-incubated with biotinylated hVISTA-Fc, then added to wells coated with VSIG-8 (blocked partner)
biotinylated hVISTA-Fc [4] = biological target: T1, biotinylated hVISTA-Fc; test: competition ELISA at pH 6.0; SNS-101 dilutions pre-incubated with biotinylated hVISTA-Fc, then added to wells coated with LRIG-1 (blocked partner)
biotinylated hVISTA-Fc [5] = biological target: T1, biotinylated hVISTA-Fc; test: competition ELISA at pH 6.0; SNS-101 dilutions pre-incubated with biotinylated hVISTA-Fc, then added to wells coated with PSGL-1 (blocked partner)
biotinylated hVISTA-Fc [6] = biological target: T1, biotinylated hVISTA-Fc; test: competition ELISA at pH 6.0; SNS-101 dilutions pre-incubated with biotinylated hVISTA-Fc, then added to wells coated with Syndecan-2 (blocked partner)
biotinylated hVISTA-Fc [7] = biological target: T1, biotinylated hVISTA-Fc; test: competition ELISA at pH 6.0; SNS-101 dilutions pre-incubated with biotinylated hVISTA-Fc, then added to wells coated with VSIG-3 (blocked partner)

| Binder | FOB (fold over background) (human VISTA [1]) | FOB (fold over background) (human VISTA [2]) | IC50 (biotinylated hVISTA-Fc [3]) [nM] | IC50 (biotinylated hVISTA-Fc [4]) [nM] | IC50 (biotinylated hVISTA-Fc [5]) [nM] | IC50 (biotinylated hVISTA-Fc [6]) [nM] | IC50 (biotinylated hVISTA-Fc [7]) [nM] |
| --- | --- | --- | --- | --- | --- | --- | --- |
| B1 | 29.4 | 34.8 | – | – | – | – | – |
| B2 | – | – | 6 | 6 | 7 | 6 | 6 |
